In patent US20230279115A1 (MABWELL SHANGHAI BIOSCIENCE, published 2023):
Changes are numbered by the printed parent chain.

B1: KN035 (fusion protein of the KN035 variable region and Fc) (Fc fusion)
chain: QVQLVESGGGLVQPGGSLRLSCAASGKMSSRRCMAWFRQAPGKERERVAKLLTTSGSTYLADSVKGRFTISRDNSKNTVYLQMNSLRAEDTAVYYCAADSFEDPTCTLVTSSGAFQYWGQGTLVTVSS
notes: Built by the same strategy as chF2; also called Envafolimab; control antibody; not shown: human Fc (IgG1, hFc) from the same expression vector and strategy as chF2
B2: hzF2-m9 (VHH)
VHH: EVQLVESGGGLVQPGGSLRLSCAASRDSDEGASCMGWFRQAPGKEREGVAIIFNAGERTDYGDSVKGRFTISRDNAKNTLYLQMNSLRAEDTAVYYCATVWCGSWVARSWGQGTLVTVSS
notes: also called humanized single variable domain antibody hzF2-m9
B3: hzF2-m4 (VHH)
VHH: B2 VHH with D29N, E30D, E45G, R46L
notes: The parent hzF2 is a VHH-human IgG1 Fc fusion; also called humanized single variable domain antibody hzF2-m4
B4: hzF2-m2 (VHH)
VHH: B2 VHH with R26G, E30D, E45G, R46L
notes: The parent hzF2 is a VHH-human IgG1 Fc fusion; also called humanized single variable domain antibody hzF2-m2
B5: hzF2-m1 (VHH)
VHH: B2 VHH with E30D, C34S, E45G, R46L, C102S
notes: The parent hzF2 is a VHH-human IgG1 Fc fusion; also called humanized single variable domain antibody hzF2-m1
B6: hzF2-m3 (VHH)
VHH: B2 VHH with D29S, E30S, E45G, R46L
notes: The parent hzF2 is a VHH-human IgG1 Fc fusion; also called humanized single variable domain antibody hzF2-m3
B7: hzF2-m7 (VHH)
VHH: B2 VHH with E30D, G31S, E45G, R46L
notes: The parent hzF2 is a VHH-human IgG1 Fc fusion; also called humanized single variable domain antibody hzF2-m7
B8: hzF2-m8 (VHH)
VHH: B2 VHH with E30D, A55V
notes: also called humanized single variable domain antibody hzF2-m8
B9: hzF2-m12 (VHH)
VHH: B2 VHH with A55V
notes: Framework 2 is KEREG; also called humanized single variable domain antibody hzF2-m12
B10: hzF2-m10 (VHH)
VHH: B2 VHH with E30D, W101Y
notes: Framework 2 is KEREG; also called humanized single variable domain antibody hzF2-m10
B11: hzF2-m16 (VHH)
VHH: B2 VHH with A55V, W101F, W105F
notes: Framework 2 is KEREG; also called humanized single variable domain antibody hzF2-m16
B12: hzF2-m15 (VHH)
VHH: B2 VHH with A55V, W101F, W105Y
notes: Framework 2 is KEREG; also called humanized single variable domain antibody hzF2-m15
B13: hzF2-m14 (VHH)
VHH: B2 VHH with A55V, W101Y, W105Y
notes: Framework 2 is KEREG; also called humanized single variable domain antibody hzF2-m14
B14: hzF2-m11 (VHH)
VHH: B2 VHH with E30D, W101Y, W105Y
notes: Framework 2 is KEREG; also called humanized single variable domain antibody hzF2-m11
B15: hzF2-m13 (VHH)
VHH: B2 VHH with E30D, W101F, W105F
notes: Framework 2 is KEREG; also called humanized single variable domain antibody hzF2-m13

target: T1, human PD-L1 expressed on the cell surface (human, UniProt Q9NZQ7 19-290); test: cell-based or functional assay
T1 sequence (Q9NZQ7 19-290): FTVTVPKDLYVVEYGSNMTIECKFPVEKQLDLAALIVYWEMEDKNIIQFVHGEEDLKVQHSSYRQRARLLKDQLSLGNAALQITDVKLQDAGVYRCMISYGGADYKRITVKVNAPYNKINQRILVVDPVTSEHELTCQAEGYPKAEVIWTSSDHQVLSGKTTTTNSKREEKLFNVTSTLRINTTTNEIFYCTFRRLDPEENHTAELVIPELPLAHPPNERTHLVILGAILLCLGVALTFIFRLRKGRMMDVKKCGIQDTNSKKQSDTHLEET

Row | Reporter Gene Assay (Jurkat-PD1-NFAT cells and CHO-PD-L1-CD3L cells), luciferase RLU, EC50 | Binder
1 | 4.9 nM | B1

target: T2, human PD-L1 recombinant protein (human, UniProt Q9NZQ7 19-238); test: BLI, human PD-L1 recombinant protein
T2 construct: also called recombinant PD-L1 protein; recombinant PD-L1
T2 sequence (Q9NZQ7 19-238 limits assumed): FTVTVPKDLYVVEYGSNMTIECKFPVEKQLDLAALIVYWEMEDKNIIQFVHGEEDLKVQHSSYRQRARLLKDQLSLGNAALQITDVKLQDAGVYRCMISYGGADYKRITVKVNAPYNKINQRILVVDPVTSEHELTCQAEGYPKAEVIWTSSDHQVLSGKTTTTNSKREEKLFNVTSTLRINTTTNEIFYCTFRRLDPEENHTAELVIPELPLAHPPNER

Row | Kd | koff | kon | Binder
2 | 1.34 nM | 0.000434 s⁻¹ | 324000 M⁻¹ s⁻¹ | B2
3 | 9.36 nM | 0.0065 s⁻¹ | 695000 M⁻¹ s⁻¹ | B3
4 | 1.26 nM | 0.000709 s⁻¹ | 562000 M⁻¹ s⁻¹ | B4
5 | 2.8 nM | 0.0019 s⁻¹ | 679000 M⁻¹ s⁻¹ | B5
6 | 7.8 nM | 0.00487 s⁻¹ | 624000 M⁻¹ s⁻¹ | B6
7 | 4.59 nM | 0.00157 s⁻¹ | 341000 M⁻¹ s⁻¹ | B7
8 | 1.18 nM | 0.000419 s⁻¹ | 356000 M⁻¹ s⁻¹ | B8

target: T1, human PD-L1 expressed on the cell …; test: flow cytometry on CHO-PD-L1-CD3L cells, FITC anti-human Fc
Protocol: Cells (CHO-PD-L1-CD3L cells) were collected after centrifugation, divided into 5×10⁵ cells/sample/100 µL. Gradient diluted single variable domain antibody was added to the cells at a final concentration of 66 nM as the highest concentration, 3-fold serial dilution to make 10 gradients; then incubated on ice for 2h. The cells were washed twice with ice-cold PBS (containing 0.05% Tween). FITC-labeled anti-human Fc secondary antibody (Cat.: F9512, Sigma) was added, and incubated on ice for 1h. The cells were washed twice with ice-cold PBS (containing 0.05% Tween), resuspended in 200 µL of Flow Cytometry Buffer, and the mean fluorescence intensity (MFI) of the cells was detected by flow cytometer (Model B49007AD, SNAW31211, BECKMAN COULTER).

Row | EC50 | Binder
9 | 1.27 nM | B1

target: T2, human PD-L1 recombinant protein; test: BLI (Octet QKe), antibody captured on AHC probe, PD-L1 60 nM
Protocol: Using the Octet QKe system instrument from Fortebio Company, the ability of chF2 to bind corresponding recombinant antigen was determined by using the capture antibody (AHC) biological probe against the Fc fragment of the human antibody to capture the Fc fragment of the antibody. During the measurement, chF2 was diluted with PBS buffer to 4 µg/mL, and flowed over the surface of AHC probe (Cat.: 18-0015, PALL) for 120 s. A human PD-L1 recombinant protein was used as the mobile phase to interact with the antibody captured on the chip surface. The recombinant PD-L1 protein concentration was 60 nM. The binding time for each antigen was 300 s, and the final dissociation time was 300 s.

Row | Kd | koff | kon | Binder
10 | 1.5 nM | 0.00035 s⁻¹ | 233000 M⁻¹ s⁻¹ | B1

target: T3, monkey PD-L1 recombinant protein (monkey); test: BLI (Octet QKe), antibody captured on AHC probe, antigen 60 nM
T3 construct: also called recombinant monkey PD-L1
Protocol: (§1) The Octet QKe system instrument from Fortebio Company was used to determine whether chF2 could bind to recombinant monkey PD-L1 and recombinant murine PD-L1 by using the capture antibody (AHC) biological probe of anti-human antibody Fc segment to capture the Fc segment of the antibody. During the measurement, chF2 was diluted to 4 µg/mL with PBS buffer and flowed over the surface of AHC probe (PALL, Cat.: 18-0015) for 120 s. The monkey PD-L1 recombinant protein and the murine PD-L1 recombinant protein were used as mobile phases to interact with the antibodies captured on the surface of the chip. The PD-L1 recombinant protein concentration was 60 nM. The binding time of each antigen was 300 s, and the final dissociation time was 300 s.

Row | Kd | koff | kon | Binder
11 | 1.32 nM | 0.000281 s⁻¹ | 213000 M⁻¹ s⁻¹ | B1

target: T4, murine PD-L1 recombinant protein (murine, UniProt Q9EP73 19-238, limits assumed); test: BLI (Octet QKe), antibody captured on AHC probe, antigen as mobile phase
T4 construct: also called recombinant murine PD-L1
T4 sequence (Q9EP73 19-238 limits assumed): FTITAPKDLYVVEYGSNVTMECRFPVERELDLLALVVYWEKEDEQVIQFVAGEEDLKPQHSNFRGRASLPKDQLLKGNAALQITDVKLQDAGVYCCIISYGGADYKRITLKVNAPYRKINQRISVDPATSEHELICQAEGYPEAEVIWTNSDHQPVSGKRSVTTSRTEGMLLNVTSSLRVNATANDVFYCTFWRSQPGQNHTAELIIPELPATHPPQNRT
Protocol: as §1

Row | binding result | Binder
12 | no binding (tested: 60 nM) | B1

target: T2, human PD-L1 recombinant protein; test: BLI (method per paragraph 89); target not given, taken as human PD-L1 recombinant protein

Row | Kd | Binder
13 | 1.34 nM | B2
14 | 1.54 nM | B9
15 | 4.31 nM | B10
16 | 3.18 nM | B11
17 | 4.75 nM | B12
18 | 9.36 nM | B3
19 | 3.81 nM | B13
20 | 3.24 nM | B14
21 | 4.26 nM | B15
22 | 1.26 nM | B4
23 | 2.8 nM | B5
24 | 7.8 nM | B6
25 | 4.59 nM | B7
26 | 1.18 nM | B8

target: T5, PD-L1-mFc (human, UniProt Q9NZQ7 19-238); test: blocking ELISA: PD-1-hFc coated at 0.5 µg/mL, 0.5 µg/mL PD-L1-mFc co-incubated with the titrated binder (50 nM, 1.5-fold, 10 points), detection with HRP-anti-mouse Fc; blocked partner PD-1-hFc
T5 construct: range 19-238; not shown: mouse Fc (mFc)
T5 sequence (Q9NZQ7 19-238 limits assumed): as the sequence (Q9NZQ7 19-238 limits assumed) above
Protocol: Human PD-1-hFc (PD-1 Sequence No. NP_005009.2, 21aa-167aa) was diluted with PBS to 0.5 µg/mL, coated on an ELISA plate overnight at 4° C. Then the plate was blocked with 5% BSA for 60 min at 37° C. in a thermostatic incubator. Gradient dilutions of hzF2 and control antibody KN035, and an isotype control NC-hIgG1 (initial working concentration of 50 nM, 1.5-fold dilution to 10 concentration gradients), were added, then PD-L1-mFc (PD-L1 Sequence No. NP_054862.1, 19aa-238aa) was added at a working concentration of 0.5 µg/mL, co-incubated and reacted in a thermostatic incubator at 37° C. for 60 min. The plate was washed 4 times with PBST; then added 1:5000 diluted HRP-anti-mouse Fc (Cat.:115-035-071, Jackson Immuno Research) thereto, reacted for 45 min, and added TMB (Beijing Taitianhe Biology, Cat.: ME142) substrate to develop color for 15 min. After adding 2 M HCl to stop the reaction, the plate was read and recorded about the absorbance value of A450nm-630nm of the well plate by a reader taking 630 nm as the reference wavelength, and 450 nm as the detection wavelength.

Row | IC50 | Binder
27 | 8.1 nM | B1
